# B1: TPR t1 (parent)
# chain: GACCAAUCUGCCCUCAGAGCUCGAGAACAUCUUCGGAUGCAGAGGAGGCAGGCUUCGGUGGCGCGAUAGCGCCAACGUCCUCAACCUCCAAUGCAUCCCACCACAUGAUGAUGCCUGAAGAGCCUUGGUUUUUUG
# Variants of: B1
# Assay: polymerase ribozyme fitness, log enrichment relative to wild type (log ratio); higher = more active; in vitro selection for triplet polymerase activity
# Summary of the method: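 In triplicate, a single round of in vitro selection was run on each mutant library, PCR-built and transcribed, covering one subunit of a heterodimeric triplet polymerase ribozyme. Frozen incubation at −7 °C followed annealing with a biotinylated primer, partner subunit and triplets, and extended constructs were then gel-excised, streptavidin-captured and taken through RT-PCR. Fitness is the logarithm of genotype enrichment over wild-type enrichment, from inverse-variance-weighted replicate averages of Illumina-sequenced inputs and outputs. […] only genotypes with ≥10 input reads and ≥1 read per output were kept.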
row,Variant,polymerase ribozyme fitness (log ratio)
1,GACCAAUCUGCCAUCAGAGCUCGAGAACAUCUUCGGAUGCAGAGGAGGCAGGCUUCGGUGGCGCGAUAGCGCCAACGUCCUCAACCUGCAAUGCAUCCCACCACAUGAUGAUGCCUGAAGAGCCUUGGUUUUUUG [C13A C88G],-3.12
2,GACCAAUCUGCCAUCAGAGCUCGAGAACAUCUUCGGAUGCAGAGGAGGCAGGCUUCGGUGGCGCGAUAGCGCCAACGUCCUCAACCUCCAAUGCAUCCCACAACAUGAUGAUGCCUGAAGAGCCUUGGUUUUUUG [C13A C102A],-3.7
3,GACCAAUCUGCCAUCAGAGCUCGAGAACAUCUUCGGAUUCAGAGGAGGCAGGCUUCGGUGGCGCGAUAUCGCCAACGUCCUCAACCUCCAAUGCAUCCCACCACAUGAAGAUGCCUGAAGAGCCUUGGUUUUUUG [C13A G39U G69U U109A],-5.33
4,GACCAAUCUGCCAUCAGAGCUCGAGAACAUCUUCGGAUGCAGAGGAGGCAGGCUUCGGUUGCGCGAUAGCGCCAACGUCCUCAACCUCCAAUGCAUCCCACCACAUGAUGAUGCCUGAAGAGCCUUGGUUUUUUG [C13A G60U],-1.81
5,GACCAAUCUGCCAUCAGAGCUCGAGAACAUCUUCGCAUGCAGAGGAGGCAGGCUUCGGUGGCGUGAUAGCGCCAACGUCUUCAACCUCCAAUGCAUCCCACCACAUGAUGAGGCCUAAAGAGCCUUGGUUUUUUG [C13A G36C C64U C80U U112G G117A],-6.43
6,GACCAAUCUGCCAUCAGAGCUCGAGAACAUCUUCGGAUGCAGAGGAGGCAGGCUUCCGUGGCGCGAUAGCGCCAACGUCCUCAAACUCCAAUGCAUCCCACCACAUGAUGAUGCCUGAAGAGCCUUGGUUUUUUG [C13A G57C C85A],-1.99
7,GACCAAUCUGCCAUCAGAGCUCGAGAACAUCUUCGGAUGCAGAGGAGGCAGGCUUCGGUUGCGCGAUAGCGCCAACGUCCUCAACUUCCAAUGCAUCCCACCACAUGAUGAUGCCUGAAGAGCCUUGGUUUUUUG [C13A G60U C86U],-2.73
8,GACCAAUCUGCCAUCAGAGCUCGAGAACAUCUUCGGAUGCAGAGGAGGCAGGCUUCGGUGGCGCGAUAGCGCCAACGUCCUCAACCUCCAAUGCAUCCCAUCACAUGAUGAUACCUGAAGAGCCUUGGUUUUUUG [C13A C101U G113A],-2.95
9,GACCAAUCUGCCAUCAGAGCUCGAGAACAUCUUCGGAUGCAGAGCAGGCAGGCUUCGGUGGCGCGAUAGCGCCAACGUCCUCACCCUCCACUGCAUCCCACCACAUGAUGAUGCCUGAAGAGCCUUGGUUUUUUG [C13A G45C A84C A91C],-4.71
10,GACCAAUCUGCCAUCAGAGCUCGAGAACAUCUUCGGAUGCAGAGGAGGCAGUCUUCGGUGGCGCGAUAGUGCCAACGUCCUCAACCUCCAAUGCAUCCCACCACAUGAUGAUGCCUGAAGAGCCUUGGUUUUUUG [C13A G52U C70U],-2.88
11,GACCAAUCUGCCAUCAGAGCUCGAGAACAUCUUCGGAUGCAGAGGAGGCAGGCUUCGGUAGCGCGAUAGCGCCAACGUCCUCAACCUCCAAUGCAUCCCACCACAUGAUGAUGCCUGAAGAGCCUUGGUUAUUUG [C13A G60A U131A],-2.5
12,GACCAAUCUGCCAUCAAAGCUCGAGAACAUCUUCGGAUGCAGAGGAGGCAGGCUUCGGUGGAGCGAUAGCGCCAACGUCCUCAACCUCCAAUGCAUCCCACCACAUGAUGAUGCCUGAAAAGCCUUGGUUUUUUG [C13A G17A C62A G120A],-5.55
13,GACCAAUCUGCCAUCAGAGCUCGAGAACAUCUUCGGAUGCAGACGAGGCAGGCUUCGGUGGCGCGAUAGCGCCAACGUCCUCAACCUCCAAUGCAUCCCACCACAUGAUGAUGCCGGAAGAGCGUUGGUUUUUUG [C13A G44C U116G C124G],-2.72
14,GACCAAUCUGCCAUCAGAGCUCGAGAACAUCUUCGCAUGCAGAGGAGGCAGGGUUCGGUGGCGCGAUAGCGCCAACGUCCUCAACCUCCAAUGCCUCCCACCACAUGAUGAUGCCUGAAGAGCCUUGGUUUUUUG [C13A G36C C53G A95C],-4.38
15,GACCAAUCUGCCAUCAGAGCUCGAGAACAUCUUCGGAUGCAGAAGAGGCAGGCUUCGGUGGCGCGAUAGCGCCAACGUCCUCAACCUCCAAUGCAUCCCACCACAUGAUGAUGCCUGAAGAGCCUUGGUUUUUUG [C13A G44A],-2.95
16,GACCAAUCUGCCAUCAGAGCUCGAGAACAUCUUCGGAUGCAGACGAGGCAGGCUUCGGUGGCGCGAUAGCGCCAACGUCCUCAACCUCCAAUGCAUCCCACCACAUGAUGAUGCCUGAAGAGCCUUGGUUUUUUG [C13A G44C],-1.83
17,GACCAAUCUGCCAUCAGAGCUCGAGAACAUCUUCGAAUGCAGAGGAGGCAGGCUUCGGUGGCACGAUAGCGCCAACGUCUUCAACCUCCAAUGCAUCCCACCACAUGAUGAUGCCUGAAGAGCCUUGGUUUUUUG [C13A G36A G63A C80U],-3.86
18,GACCAAUCUGCCAUCAGAGCUCGAGAACAUCUUCGGAUGCAAAGGAGGCAGGCUUCGGUGGCGCGAUAUCGCCAACGUCCUCAACCUCCAAUGCAUCCCACCACAUGAUGCUGCCAGAAGAGCCUUGGGUUUUUG [C13A G42A G69U A111C U116A U129G],-4.99
19,GACCAAUCUGCCAUCAGAGCUCGAGAACAUCUUCGGAUGCAGAGGAGACAGGCUUCGGUGGCGCGAUAACGCCAACGUCCUCAACCUCCAAUGCAUCCCACCACAUGAUGAUGUCUGAAGAGCCUUGGAUUUUUG [C13A G48A G69A C114U U129A],-6.99
20,GACCAAUCUGCCAUCAGAGCUCGAGAACAUCUUCGGAUGCAUAGGAGGCAGGCUUCGGUGGCGCGAUAGCGCCAACGUCCUCAACCUCCAAUGCAUCCCACCACAUGAUGAUGCCUGAAGAGCCUUGGUUUUUUG [C13A G42U],-3.39
21,GACCAAUCUGCCAUCAGAGCUCGAGAACAUCUUCGGAUGCAGAGGAGGCAGAUUUCGGUGGCGCGAUAGCGCCAUCGUCCGCAACCUCCAAUGCAUCCCACCACAUGAUGAUGCCUGAAUAGCUUUUGUUUUUUG [C13A G52A C53U A75U U81G G120U C124U G127U],-1.17

row,Variant,polymerase ribozyme fitness (log ratio)
1,GACCAAUCUGCCAUCAGAGCUCGAGAACAUCUUCGGAUCCAGAGGAGGCAGGCUUCGGUGGCGCGAUAGCGCCAACGUCCUCAACCUCCAAUGCAUCCCACCACAUGAUGAUGCCUGAAGAGCCUUGGUUUUUUG [C13A G39C],-2
2,GACCAAUCUGCCAUCAGAGCUCGAGAACAUCUUCGGAUGCAGAGGAGGCAGGCUUCGGUGGCGCGAUAGCGCCAACGUCCUCAACCUCCAAUGCAUCCAACCACAUGAUGAUGCCUGAAGAGCCUUGGUUUUUUG [C13A C99A],-6.93
3,GACCAAUCUGCCAUCAGAACUCGAGAACAUCUUCGGAUGCAGAGGAGGCAGGCUUCGGUGGCGCGAUAGCGCCAACGUCCUCAACCUCCAAUGCAUCCCACCACAUGAUGAUUCCUGAAGAGCCUUGGUUUUUUG [C13A G19A G113U],-3.81
4,GACCAAUCUGCCAUCAGAGCUCGAGAACAUCUUCGGAUGCAGAGGAGGCAGGCUUCGGUAGCGCGAUAGCGCCAACGUCCUCAACCUCCAAUGCAUCCCACUACAUGAUGAUGCCUGCAUAGCCUUGGUUUUUUG [C13A G60A C102U A118C G120U],-2.89
5,GACCAAUCUGCCAUCAGAGCUCGAGAACAUCUUCGGAUGCAGAGGAGGCAGGCUUCGGUGGCGCGAUAGCGCCAACGUCCUCAACCUCCAAUGCAUCCCACCACAUGAUGAUGCCUGAAGAGACUUGGUUUUUUG [C13A C123A],-0.742
6,GACCAAUCUGCCAUCAGAGCUCGAGAACAUCUUCGGAUGCAGAGGAGGCAGUCCUCGGUGGCGCGAUAGUGCCAACGUCCUCAACCUCCAAUGCAUCCCACCACAUGAUGAUGCCUGAAGAGCUUUGGUUUUUUG [C13A G52U U54C C70U C124U],-1.03
7,GACCAAUCUGCCAUCAGAGCUCGAGAACAUCUUCGGAUGCAGAGGAGGCAGUCUCCGGUGGCGCGAUAGCGCCAACGUCCUCAACCUCCAAUGCAUCCCACCACAUGAUGAUGCCUGAAGAGCCUUGGUUUUUUG [C13A G52U U55C],-2.87
8,GACCAAUCUGCCAUCAGAGCUCGAGAACAUCUUCGGAUGCAGAGGAGGCAGUUUUCGGUGGCGCGAUAGCGCCAACGUCCUCAACCUCCAAUGCAUCCCACCACAUGAUGAUGCCUGAAGAGCCUUGGUUUUUUG [C13A G52U C53U],-3.61
9,GACCAAUCUGCCAUCAGAGCUCGAGAACAUCUUCGGAUGCAGAGGAGUCAGGCUUCGGUGGCGCGAUAGCGCCAACGUCCUCAACCUCCAAUGCAUCCCACCACAUGAUGCUGCCUGAAGAGCCUUGGUUUUUUG [C13A G48U A111C],-2.2
10,GACCAAUCUGCCAUCACAGCUCGAGAACAUCUUCGGAUGCAGAGGAGGCAGGCUUCGGUGGCGCGAUAGCGUCAACGUCCUCAACCUUCAAUGCAUCCCACCACAUGAUGAUGCCUGAAGGGCCUUGGUUUUUUG [C13A G17C C72U C88U A121G],-2.21
11,GACCAAUCUGCCAUCAGAGCUCGAGAACAUCUUCGGAUGCAUAGGAGGCAGGCUUCGGUGGCGCGAUAGCGGCAACGUCCUCAACCUCCAAUGCAUCCCACCACAUGAUGAUGCCUGAAGAGCCUUGGUUUUUUG [C13A G42U C72G],-3.63
12,GACCAAUCUGCCAUCAGAGCUCGAGAACAUCUUCGGAUGCAGAGGAGGCAGGCUUCUGUGGCGCGAUAGCGCCAACGUCCUCAACCUCCAAUGCAUCCCACCACAUGAUGAUGCCUGAAGAGCCUUGGUUUUUUG [C13A G57U],-1.78
13,GACCAAUCUGCCAUCAGAGCUCGAGAACAUCUUCGGAUGCAGAGGAGGCAGGCUUCGGUGGCGCGAUAGCGCCAACGUCCUCAACCUCCAAUGAAUCCCACCACAUGAUGAUGCCUGAAGAGCCUUGGUUUUUUG [C13A C94A],-2.07
14,GACCAAUCUGCCAUCAGAGCUCGAGAACAUCUUCGGAUGCAGAGGAGGCAGGCUUCGGUGGCGCGAUAGCGCCAACGUCCUCAACCUCCAAUGUAUCCCACCACAUGAUGAUGCCUGAAGAGCCUUGGUUUUUUG [C13A C94U],-2.74
15,GACCAAUCUGCCAUCAGAGCUCGAGAACAUCUUCGGAUGCAGAGGAGGCAGGCUUCGGUGUCGCGAUAGCGCCAACGUCCUCAACCUCCAAUGCAUCCCACCACAUGAUGAUGCCUGAAGAGCCUUGGUUUUUUG [C13A G61U],-1.08
16,GACCAAUCUGCCAUCAGAGCUCGAGAACAUCUUCGGAUGCAGACGAGGCAGGCUUCGGUGGCGCGAUAGCGCCAACGUCCUCAACCUCCAAUGCAUCCCACCACAUGAUGAUGCCUGAAGAGCAUUGGUUUUUUG [C13A G44C C124A],0.459
17,GACCAAUCUGCCAUCAGAGCUCGAGAACAUCUUCGGAUGCAGAGGAGGCAGGCUUCGGUUGCGCGAUAGCGUCAACGUCCUCAACCUCCAUUGCAUCCCACCACAUGAUGAUGCCUGAAAAGCCUUGGUUUUUUG [C13A G60U C72U A91U G120A],-2.35
18,GACCAAUCUGCCAUCAGAGCUCGAGAACAUCUUCGGAUGCAGAGGAGGCAGGCUUCGGUGGCGCGAUAGCGCCAACGUCCUCAACCUCCAAUGCAUCCCAACACAUGAUGAUGCCUGAAGAGCCUUGGUUUUUUG [C13A C101A],-2.54
19,GACCAAUCUGCCAUCAGAGCUCCAGAACAUCUUCGGAUGCAGAGGAGGCGGGCUUCGGUGGCGCGAUAGCGCCAACGUCCUCAACCUCCAAUGCAUCCCACCACAUGAUGAUCCCUGAAGAGCCUUGGUUUUUUG [C13A G23C A50G G113C],-6.66
20,GACCAAUCUGCCAUCAGAGCUCGAGAACAUCUUCGGAUGCAGAGGAGGCAGGCUUCGGUGGCGCGAUAGCGCCAACGUCCUCAACCUCCAAUGCAUCCCACCACAUGAUGAUGCCUGAAGAGCAUUGGUUUUUUG [C13A C124A],0.0418
21,GACCAAUCUGCCAUCAUAGCUCGAGAACAUCUUCGGAUGCAGAGGAGGCAGGCUUCGGUGGCGCGAUAGCGCCAACGUCCUCAACCUCCAAUGCAUCCCACCACAUGAUGAUGCCUGAAGAGCCUUGGUUUUUUG [C13A G17U],-4.98
